Assay results published in publication PMC6349933.

Tests used:
Assay in all cases: FRET or BRET; acceptor photobleaching FRET between ECFP and EYFP fusions in tobacco leaf epidermis; YFP bleached with a 514 nm laser; E = 100(A − B)/B
[1] = biological target: EYFP-ROP11T22N (Arabidopsis) (UniProt O82481)
EYFP-ROP11 (Arabidopsis) = EYFP-ROP11 (Arabidopsis) (UniProt O82481)
[2] = biological target: EYFP-ROP11G17V (Arabidopsis) (UniProt O82481)
[3] = biological target: BDR1-ECFP (Arabidopsis thaliana)
Chain of BDR1-ECFP (Arabidopsis thaliana) (main, as listed by the source): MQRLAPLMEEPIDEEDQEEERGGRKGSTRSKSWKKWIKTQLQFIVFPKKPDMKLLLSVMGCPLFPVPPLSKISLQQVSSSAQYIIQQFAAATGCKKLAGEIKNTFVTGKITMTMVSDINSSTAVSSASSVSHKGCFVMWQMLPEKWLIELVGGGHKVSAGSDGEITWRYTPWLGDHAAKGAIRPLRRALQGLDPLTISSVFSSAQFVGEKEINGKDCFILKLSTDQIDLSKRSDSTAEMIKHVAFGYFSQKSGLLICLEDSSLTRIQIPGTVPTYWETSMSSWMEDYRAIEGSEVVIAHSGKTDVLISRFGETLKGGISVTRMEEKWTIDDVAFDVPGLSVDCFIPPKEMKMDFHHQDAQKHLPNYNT

FRET efficiency [1] | FRET efficiency (EYFP-ROP11 (Arabidopsis)) | FRET efficiency [2] | FRET efficiency [3] | Substance
0% | > 10% | > 10% | – | BDR1-ECFP (natural protein)
– | – | – | 15% | EYFP-WAL (natural protein)
